Biological target: recombinant nucleoprotein (NP) protein derived from influenza virus H1N1 to which a Flag tag was fus (influenza virus H1N1)
Sequence (P03466 whole entry): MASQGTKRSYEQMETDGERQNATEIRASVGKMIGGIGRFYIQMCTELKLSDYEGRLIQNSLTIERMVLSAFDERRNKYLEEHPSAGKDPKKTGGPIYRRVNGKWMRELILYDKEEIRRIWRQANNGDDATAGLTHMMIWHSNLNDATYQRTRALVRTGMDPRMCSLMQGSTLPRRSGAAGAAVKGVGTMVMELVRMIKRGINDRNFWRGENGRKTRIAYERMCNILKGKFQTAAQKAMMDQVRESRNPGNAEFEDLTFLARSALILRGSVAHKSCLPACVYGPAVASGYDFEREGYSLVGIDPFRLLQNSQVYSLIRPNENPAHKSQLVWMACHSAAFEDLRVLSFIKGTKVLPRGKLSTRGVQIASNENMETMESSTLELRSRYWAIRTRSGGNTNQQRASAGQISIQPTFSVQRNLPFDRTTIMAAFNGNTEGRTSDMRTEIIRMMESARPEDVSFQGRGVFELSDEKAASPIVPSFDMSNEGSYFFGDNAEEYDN

B1: VHH antibody consisting of the amino acid sequence represented by SEQ ID NO: 08 (VHH)
VHH: QVQLVESGGGLVQAGGSLRLSCAASRTIFNPNVMGWYRQAPGKQRELVADISLSGSTNYADSVKGRFTISRDNAKNTMYLQMNSLKPEDTAVYYCNTNAISGAPGRYWGQGTQVTVSS
Kd: 0.236 nM
